B1: IQGAP1 GRD1-RGCT wild type (aa 877-1558) (domain or fragment)
chain: DQSDQDFQEELDLMKMREEVITLIRSNQQLENDLNLMDIKIGLLVKNKITLQDVVSHSKKLTKKNKEQLSDMMMINKQKGGLKALSKEKREKLEAYQHLFYLLQTNPTYLAKLIFQMPQNKSTKFMDSVIFTLYNYASNQREEYLLLRLFKTALQEEIKSKVDQIQEIVTGNPTVIKMVVSFNRGARGQNALRQILAPVVKEIMDDKSLNIKTDPVDIYKSWVNQMESQTGEASKLPYDVTPEQALAHEEVKTRLDSSIRNMRAVTDKFLSAIVSSVDKIPYGMRFIAKVLKDSLHEKFPDAGEDELLKIIGNLLYYRYMNPAIVAPDAFDIIDLSAGGQLTTDQRRNLGSIAKMLQHAASNKMFLGDNAHLSIINEYLSQSYQKFRRFFQTACDVPELQDKFNVDEYSDLVTLTKPVIYISIGEIINTHTLLLDHQDAIAPEHNDPIHELLDDLGEVPTIESLIGESSGNLNDPNKEALAKTEVSLTLTNKFDVPGDENAEMDARTILLNTKRLIVDVIRFQPGETLTEILETPATSEQEAEHQRAMQRRAIRDAKTPDKMKKSKSVKEDSNLTLQEKKEKIQTGLKKLTELGTVDPKNKYQELINDIARDIRNQRRYRQRRKAELVKLQQTYAALNSKATFYGEQVDYYKSYIKTCLDNLASKGKVSKKPREMKGKKSKK
B2: IQGAP1 GRD1-RGCT S1441E (aa 877-1558) (domain or fragment)
chain: B1 chain with S565E
B3: IQGAP1 GRD1-RGCT S1443E (aa 877-1558) (domain or fragment)
chain: B1 chain with S567E
B4: IQGAP1 GRD1-CT (aa 863-1657) (domain or fragment)
chain: DPPMVVVRKFVHLLDQSDQDFQEELDLMKMREEVITLIRSNQQLENDLNLMDIKIGLLVKNKITLQDVVSHSKKLTKKNKEQLSDMMMINKQKGGLKALSKEKREKLEAYQHLFYLLQTNPTYLAKLIFQMPQNKSTKFMDSVIFTLYNYASNQREEYLLLRLFKTALQEEIKSKVDQIQEIVTGNPTVIKMVVSFNRGARGQNALRQILAPVVKEIMDDKSLNIKTDPVDIYKSWVNQMESQTGEASKLPYDVTPEQALAHEEVKTRLDSSIRNMRAVTDKFLSAIVSSVDKIPYGMRFIAKVLKDSLHEKFPDAGEDELLKIIGNLLYYRYMNPAIVAPDAFDIIDLSAGGQLTTDQRRNLGSIAKMLQHAASNKMFLGDNAHLSIINEYLSQSYQKFRRFFQTACDVPELQDKFNVDEYSDLVTLTKPVIYISIGEIINTHTLLLDHQDAIAPEHNDPIHELLDDLGEVPTIESLIGESSGNLNDPNKEALAKTEVSLTLTNKFDVPGDENAEMDARTILLNTKRLIVDVIRFQPGETLTEILETPATSEQEAEHQRAMQRRAIRDAKTPDKMKKSKSVKEDSNLTLQEKKEKIQTGLKKLTELGTVDPKNKYQELINDIARDIRNQRRYRQRRKAELVKLQQTYAALNSKATFYGEQVDYYKSYIKTCLDNLASKGKVSKKPREMKGKKSKKISLKYTAARLHEKGVLLEIEDLQVNQFKNVIFEISPTEEVGDFEVKAKFMGVQMETFMLHYQDLLQLQYEGVAVMKLFDRAKVNVNLLIFLLNKKFYGK
B5: CDC42 (aa 1-178) (domain or fragment)
chain: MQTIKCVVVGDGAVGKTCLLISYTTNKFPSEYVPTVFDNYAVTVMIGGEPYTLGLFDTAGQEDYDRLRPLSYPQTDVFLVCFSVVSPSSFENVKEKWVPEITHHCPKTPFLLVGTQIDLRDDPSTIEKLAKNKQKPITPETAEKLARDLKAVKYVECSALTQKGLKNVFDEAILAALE

Positions count from the first letter of the chain named. In names and notes the source's numbering stands.

The experiment “CDC42 (aa 1-178)” deals with B5. Briefly: mGppNHp-bound CDC42.
The next experiment addresses RAC1 (aa 1-179) (human, UniProt P63000 1-179). The experiment in a line: mGppNHp-bound RAC1.
Another experiment has as its target CDC42 Q61L (human, UniProt P60953 1-178, Q61L). Briefly: tGppNHp-bound CDC42 Q61L.
Experiment [1] deals with B2. Briefly: mGppNHp-bound CDC42.
The target in experiment [2] is B3. Briefly: mGppNHp-bound CDC42.

By koff is commonly meant the rate constant with which the complex falls apart.

Sequence of CDC42 (aa 1-178) (P60953 1-178): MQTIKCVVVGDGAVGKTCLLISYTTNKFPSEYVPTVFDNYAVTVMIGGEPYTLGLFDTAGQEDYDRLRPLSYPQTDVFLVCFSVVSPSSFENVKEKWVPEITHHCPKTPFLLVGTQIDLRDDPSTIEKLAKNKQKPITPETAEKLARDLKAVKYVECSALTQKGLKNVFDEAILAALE
Sequence of CDC42 Q61L (P60953 1-178 Q61L): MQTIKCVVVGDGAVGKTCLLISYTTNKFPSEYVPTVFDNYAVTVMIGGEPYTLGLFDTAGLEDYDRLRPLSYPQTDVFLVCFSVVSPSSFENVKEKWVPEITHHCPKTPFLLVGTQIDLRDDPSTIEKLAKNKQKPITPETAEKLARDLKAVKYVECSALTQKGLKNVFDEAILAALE

On to B1, for which the figures for the koff with CDC42 (aa 1-178) and with RAC1 (aa 1-179) were 2.23 s⁻¹ and 2.78 s⁻¹, respectively.

The molecule B2 displayed a koff with RAC1 (aa 1-179) of 2.71 s⁻¹.

In the experiment with RAC1 (aa 1-179), B3 returned a koff of 2.82 s⁻¹.

On to B4, for which the koff with CDC42 (aa 1-178) is 0.39 s⁻¹; with RAC1 (aa 1-179) it was 0.66 s⁻¹; in the experiment with CDC42 Q61L, 0.073 s⁻¹.

For B5, the koff in experiment [1] is 1.83 s⁻¹; in experiment [2], 2.32 s⁻¹.
